# Key:
# Human EGFR-his [1] = molecular target: T1, Human EGFR-his (human, UniProt P00533 25-645); assay: SPR, BEAT®3 captured on Protein G chip, EGFR-his injected; sample after high pH, 0 h
# T1 construct: Soluble his-tagged antigen injected over captured BEAT®3; also called hsEGFR; not shown: his tag
# Human EGFR-his [2] = molecular target: T1, Human EGFR-his; assay: SPR, BEAT®3 captured on Protein G chip, EGFR-his injected; sample after high pH, 2 h
# Human EGFR-his [3] = molecular target: T1, Human EGFR-his; assay: SPR, BEAT®3 captured on Protein G chip, EGFR-his injected; sample after high pH, 4 h
# Human EGFR-his [4] = molecular target: T1, Human EGFR-his; assay: SPR, BEAT®3 captured on Protein G chip, EGFR-his injected; sample after high pH, 24 h
# Human EGFR-his [5] = molecular target: T1, Human EGFR-his; assay: SPR, BEAT®3 captured on Protein G chip, EGFR-his injected; average of 4 replicates of Reference #1 and #2
# Method: The second assay, aims to determine the binding affinity to Human EGFR-his antigen. It was performed with a Serie S Sensor Chip Protein G (GE Healthcare).
binder,measurement,setting,value
"BEAT®3 (bispecific antibody, human IgG1, kappa, L234A L235A, also called third BEAT antibody) chain 1: EVQLVESGGGLVQPGGSLRLSCAASGFTFNTYAMNWVRQAPGKGLEWVARIRSKYNNYATYYADSVKSRFTISRDDSKNTLYLQMNSLRAEDTAVYYCVRHGNFGNSYVSYFAYWGQGTTVTVSSGGGGSGGGGSGGGGSEIVVTQSPATLSVSPGERATLSCRSSTGAVTESNYANWVQEKPGQAFRGLIGGANKRAPGVPARFSGSLSGDEATLTISSLQSEDFAVYYCALFYSNTWVFGQGTKLEIKGGGGTQVQLQESGPGLVKPSETLSLTCTVSGGSVSSGDYYWTWIRQSPGKGLEWIGHIYYSGNTNYNPSLKSRLTISIDTSKTQFSLKLSSVTAADTAIYYCVRDRVTGAFDIWGQGTMVTVSSASTKGPSVFPLAPSSKSTSGGTAALGCLVKDYFPEPVTVSWNSGALTSGVHTFPAVLQSSGLYSLSSVVTVPSSSLGTQTYICNVNHKPSNTKVDKKVEPKSCDKTHTCPPCPAPEAAGGPSVFLFPPKPKDTLMISRTPEVTCVVVDVSHEDPEVQFKWYVDGVEVHNAKTKPREEQYNSTFRVVSVLTVLHQDWLNGKEYKCKVSNKALPAPIEKTISKTKGQPREPAVYTLPPSREEMTKNQVKLVCLVTGFYPSDIAVEWESSGQPENNYYTTPPMLDSDGSFSLVSWLNVDKSRWQQGNIFSCSVMHEALHNRFTQKSLSLSPG chain 2: not shown chain 3: DKTHTCPPCPAPEAAGGPSVFLFPPKPKDTLMISRTPEVTCVVVDVSHEDPEVKFNWYVDGVEVHNAKTKPREEQYNSTYRVVSVLTVLHQDWLNGKEYKCKVSNKALPAPIEKTISKAKGQPREPEVATFPPSRDELTKNQVTLVCLVTGFYPSDIAVEWESNGQPENNYKTDPPLLESDGSFALSSRLRVDKSRWQQGNVFSCSVMHEALHNHYTQKSLSLSPG",Average rel KD,Human EGFR-his [1],0.98 relative to reference
same,Relative KD R1,Human EGFR-his [1],0.988 relative to reference
same,Average rel KD,Human EGFR-his [2],1.02 relative to reference
same,Relative KD R1,Human EGFR-his [2],1.02 relative to reference
same,Average rel KD,Human EGFR-his [3],1.09 relative to reference
same,Relative KD R1,Human EGFR-his [3],1.11 relative to reference
same,Average rel KD,Human EGFR-his [4],1.15 relative to reference
same,Relative KD R1,Human EGFR-his [4],1.17 relative to reference
same,Average rel KD,Human EGFR-his [5],1 relative to reference

# From US20190292221A1 (published 2019)
